Source: patent publication US20240026407A1, “MODIFICATION OF SAPONINS” (GLAXOSMITHKLINE BIOLOGICALS SA, priority 2020, published 2024)

Assays:
Type in all cases: biochemical, Quillaja saponaria
[1] = Experiment 6-1: screening of rhamnosidases for derhamnosylation of saponins in treated bark extract (2%), QS-17 2310 to QS-18 2164 (PAR %); conditions: TBE 2%, pH 7.5, 30 degC, 18 h; TIC peak area ratio percent, LCMS/MS; negative controls 3.061, 2.429
[2] = Experiment 6-1: specificity of rhamnosidases towards other rhamnose residues (C3 saccharide rhamnose, C28 saccharide rhamnose); conditions: TBE 2%, pH 7.5, 30 degC, 18 h; LCMS/MS; negative controls 0.18, 0.17
[3] = Experiment 6-1: screening of rhamnosidases for derhamnosylation of saponins in treated bark extract (2%), desglucosyl-QS-17 2134 to QS-21 1988 (PAR %); conditions: TBE 2%, pH 7.5, 30 degC, 18 h; TIC peak area ratio percent, LCMS/MS; negative controls 2.719, 2.158
[4] = Experiment 6-1: screening of rhamnosidases for derhamnosylation of saponins in treated bark extract (2%), QS-17 2296 to QS-18 2150 (PAR %); conditions: TBE 2%, pH 7.5, 30 degC, 18 h; TIC peak area ratio percent of rhamnosylated starting saponin to derhamnosylated product, LCMS/MS; negative controls 4.876, 5.225

Molecule	Peak57 (PAR %) [1] [%]	ratio PP/QS-21 [2]	Peak75 (PAR %) [3] [%]	QS-17 (PAR %) [4] [%]
1000 (protein, listed as Aspergillus terreus) MALSISQVAFEHHRTALGIGETQPRVSWRFDGNVSDWEQRAYEIEVKRAGHDADVFRSESSDSVLVPWPSSPLQSGEEATVRVRSFGSDGQHDTPWSDAVTVEPGLLTPDDWHDAVVIASDRPTEVDATHRPIQFRKEFSVDDSYVSARLYITALGLYEARINDQRVGDHVMAPGWQSYQYRHEYNTYDVTDLLKQGPNAIGVTVGEGWYSGRIGYDGGKRNIYGDTLGLLSLLVVTKSDGSKLYIPSDSSWKSSTGPIISSEIYDGEEYDSRLEQKGWSQVGFNSTGWLGTHELSFPKERLASPDGPPVRRVAEHKLANVFSSASGKTVLDFGQNLVGWLRIRVKGPKGQTIRFVHTEVMENGEVATRPLRQAKATDHFTLSGEGVQEWEPSFTYHGFRYVQVDGWPADTPLDENSVTAIVVHSDMERTGYFECSNPLISKLHENILWSMRGNFFSIPTDCPQRDERLGWTGDIHAFSRTANFIYDTAGFLRAWLKDARSEQLNHSYSLPYVIPNIHGNGETPTSIWGDAIVGVPWQLYESFGDKVMLEEQYGGAKDWVDKGIVRNDVGLWDRSTFQWADWLDPKAPADDPGDATTNKYLVSDAYLLHSTDMLANISTSLSKGEEASNYTEWHAKLTKEFQKAWITSNGTMANETQTGLALPLYFDLFPSAEQAQSAAKRLVNIIKQNDYKVGTGFAGTHLLGHTLSKYGESDAFYSMLRQTEVPSWLYQVVMNGTTTWERWDSMLPNGSINPGQMTSFNHYAVGSVGSWLHEVIGGLSPAEPGWRRINIEVVPGGDLQQASTKFLTPYGMASTKWWLDGQDQSCGGFDFHLVAEVPPNTRATVVLPGKGGEKVDVGSGVHEYHVRCVKL	3.119	0.16	2.788	5.010
1062 (protein, listed as Streptosporangium roseum) MIGNAVHCAPAQTSPSRSDPAPPRLTPYGLRCEHRQTPLGVGEPRPLLSWRLASARAGDDPVAYELEVGDWSSGRVEDPAAIGAVYGGPPLLPRTRYAWRVTVWARDGAEGSAESWFETGQDVWQASWIAHDPAAVAHMDPPTEGDQALSHHGLLPCPQLRTSFESTAGVTRARLLISAKGLYEARVNGHRAGDAELAPGWTDYRRRIQYQVHDVTPFLLDGENVLAATVADGWWSGFTGFDPRRPGYHYGRFPELIAELHLTFEDGSTRVVATGEGWRTGHGRVRYGDLLKGECHDARAETPGWDLPGFDDSSWRPAVVTGDDHSLLVASRDEPVRALGELLPVSSVLVRPGVHLVDFGQNIAGRVRLAVRDQEPGRRVTVRHGETLDGEDRLHTANLRTADATDVLITAGGAEEVFEPRFTYHGFRYAEVSGIDRLDDIRAIVLHSDTPWTGTFECSDPEINRLHDNIGWGQRGNFVSVPTDCPQRDERLGWLADAQVFLPTACFNADVSGFFSKWMRDVVDAQSPEGGFSNVAPLLSGVADEGAPGWADAGVLVPWHLYRVYGDDRFLDVDSMVRWVDFVARHNPDLIWRHRTGPHFADWLAPGPATPREVLATAFFHRSAALTAEAARVRGLYGEAERMGALADRVRAAFAAAFVGDGGLVEGDTQTGYLLALAFGLLTPEQGRGAAARLAALVEESGPLTGFLGVNLLCPVLSAHGRDDLAHALLRRTDPPSWLYQVRHGATTVWERWDGVGAASMNSFNHYAFGSIGEWLYSGVAGIAQAPGSVAFREVVIRPLPGDLSRAGASYESARGLISVSWHNDAEGFRLQTRIPPGATATVHLPGGETRRVTSGDHIFELVRGEKA	2.941	0.18	2.410	4.916
1002 (protein, listed as Flavobacterium johnsoniae) MKNFKNILLGLSFLITFISNGQILPVRLTTEMAENPLAVIENQPKFSWQLISKESDVSQVAYLILVASSEEKLNNDDGDIWNSGRVNTDKNLHIVYSGKPLKSETKYFWKVKVWNQLGKISKWSKTASFRTASLESDLNPIWIGAITKADSHLPEGRNYHTATFNREKKMSFINASDSLARRSIMLRKPFEVEKAVKEAVVYISGLGHYELTINGKKVGNSQFAPLWTDYDKTVNYNVYELSAKEFQKGDNVIGVLLGNGMYNTLAERYTKFFVSFGPPTLFFKMKIKYNDGSEEIIKSDRTWKYSKSPITYNSIFGGEDYNANLEQKDWNRKGFKDRDWKKVVIQEAPKGILRPQTAPPVTIQKQYEVKTVKELKPNFYVFDMGQNLSGFPTIKVKGKRGQTIRVWVAEGLNEEGTIAQGRSGKPYYYDYTLKGKDVEEWTPKFSFYGYQYVQIENINYKEDKNKEFPTLVDLKSNFIYNSAGEAGSFACSNEIFNKTHELINNSIKSNFQSVFTDCPQREKLGWLEEIQLNGPSLMFNYNLQTFLPATMQNISDSQRENGLIPTIVPEYVIFGGDFTDSPEWGVTGVILPWMYYEYYGDASLLEKYFPVMKNYVDYLGTKATNHIVSHGLGDWYDYGTHPAGYSKNSPIALSATSHYYYGAFLVAKASKLLGKTEDFEKYNTLASEIKTAFNAAFFNEETKQYGTSSQFSNAVPIFMDIVEPQYKEAVMQNLLADIKEKGDRLTTGDVGNRYLFQTLARNGENETMYRMHNHYDAPGYGFQIKFGLTTLTEQWDPRKGNSWNHFMLGQIEEWFYQSLAGIMSDPEKPGFKHFFIQPEVVGDMTFAKADYQSVYGKIASSWEKKDGKFILTVQIPVNTTATIKLPVAKNSEIKMDGKRVRAGFDEKAQKPVLELGSGIYTIECTI	2.843	0.16	2.538	4.922
1048 (protein, listed as Klebsiella oxytoca) MSQAIQHNSQVMMTRHPNFLRTAEALRPALSRQAHPPIAVVEAHADAAALFGWRAEPVSTLAAFYQRELSSGDSVIIDFGSHYVGYLHFLCQSAGSPPDAPAHLQLTFGETLSEVCEPFSDYQGWLSSSWLQQQDLWLDVLPAEIDLPRRYCFRYLKVEVKAVSRKFRLQFTQIEVNAVTSASGACPAATTSDPQLRAIDNVAVLTLQNCMQEVFEDGPKRDRRLWLGDLRLQALVNDVTFARHDLVRRCLYLFAGHTREDGMVSANVFVQPDVIADDTFLFDYSLFFVDVLYNYLQSAEDMATARELWPTARRQVELALTRCDASGVVRDSDDWWVFIDWQASLNKQAAAQGVLIYCLQRAIWLAERFEPELAVSYRQRLQQLKSAALDALWDPQQGFYVSGARRQVSWASQIWLVLAEVGTPQQRREIMRNLEKNPPAVAMNTPYLRHHYIAALLQCGLRDEAIAQIKAYWGAMVDYGADTFWEIFDPAHPDFSPYGSKLINSYCHAWSCTPAWFIRQYGL	2.465	0.17	2.441	5.007
1037 (protein, listed as Pedobacter heparinus) MNLKRHILLTAILMLNLSIAFSQVTLQNLRCEMLQNPLGIDVARPRLSWQIASTRNDVQQTAYHILVASSLAKLTENDADIWNSGKVNSAESLYNLYAGQTLKSKNKYYWKVKVYTSKGESSWSQPAFWLMGLLHYKDWEGRWIGFDRFFTGDNEAGARLSARYFRKEFSTTKTVASATAYLMGMGLYELYIDGQKIGDQVLAPTATDYTKNIKYNTLDVTEQLRQGGNHAIGVILGNGRFFAMRQSKAYKVKTFGLPKLLLQVNIKYTDGSTATIKTDDTWKGTADGPILANNEYDGEIYDARKEFKGWSEPGFKEDKWLRAEYVQEPGGTYEAQLNEGMKVMKTLSPVSITRRPNGNYILDFGQNFSGWVKFNVKGPRGTSVSLRFAESLEPNGELFRTNLRDARATDIYTLKGEGTETWAPRFTYQGFRYVELNGYPGVPQKSDFSGCLVYDDMKTAGTFESSNSLLNQIFKNAWWGIASNYKGMPVDCPQRNERQPWLGDRTVGAYGESFLFDNTALYKKWLDDIRYAQKEDGAIPDVAPAFWRYYSDNVTWPATLLFVADMLYRQTGDSTVIRKNYPAVKKWMSYMKDRYMSSEGIMTKDSYGDWCAPPATAEDGKGVNADQKHPSALIATAYYYHLANMMAGYSALTGNAGDREGYTRLAAEVKNAFNRKFYNSQGYYGDNKLTDNLLPVYFGLVEEADKGRVVMQICSIIEEKNNGHLSTGLIGTQFLMRTLTEAGRPDLAYRIASQKTYPSWGYMIENGATAIWELWNGNTAAPKMNSQNHVMMLGDLMIWYYENLAGIKAAAPGFKEITMKPELIEGLNNVTAGYQSVYGLIKSSWTKTGKKFSWNISIPPNTRAKAYLPASMQSQVKKGATADGAKYIMAENGRVVFELKSGEYAFVVEQ	2.764	0.17	2.424	4.972
1029 (protein, listed as Rhodococcus jostii) MTTPTHLRLEHLRPGEPCGTTHPRLSWRLPTGSTGQQAYQVRVAGAFDRTSSTLFTTEIIEGRDHVLVRPWTATHPAPTAGEARTWQVRCWTDLGPSDWSEPATWVTGLLHGGDLTADWIEPYEPDVPPLGHRPVYRLRASWRPRAEIAHASLFATAHGIYEFFVNDVRVGDHELTPGFTSYRAHLQVQHFDVTDLLHPEHNDLGILLSDGWFRGRHGFERHGDSFGDRVAALAELHVRYADGTSERFGTGDGWTSTPSEIDAADLMDGQRVDLRRVPAGEVRHPAVVARGGLYDDRSRLTTGVAPPVRRIETLAAVAVTEPRPGTYVVDFGQNVNGWVTAADLGPAGTHATLTHGESLAADGSVDTDHLRAFEFATGTGLPAGQVDHVVSSGRAGEAFESRHTTHGFRYVQFDGLATKPGPGSVTAAVVHTDLEQVGSFGCDNDRLAKLHAAAVWSFRGNACDVPTDCPQRERSGFTGDWQVYVETAAFTHDVAGFSDKWLRDLAADQWPDGTVPNIVPNPAGNQPSGNHFADIANGSAGWGDAAVIVPWQLWRLYGDVEVLERQYDSMTRWVERAAGAARDRRHPDRARARPTPDAHEEYLWDTGFHWGEWLEPDEIPAPDPARDHSVVATAYLARSAELLAQIAGVLGRDRDECRYAAIAAGAVRAWQREFITPEGTLTHPTQANYVRALEFDLVPAEGRRRFADELAQLLVDNDYHLGTGFLATGMLLPALARNGHLDTAYRVLLSTGNPSWMEMIDRGATTIWERWDGVDENGRATASLNHYAKGAVISFLHQFVAGLRPAETTGPHTVGYRRFVVDPRPGGDINTAHAEHCSPYGNIAVRWTIADDVFTLSLTVPSGSECELRLGDTTELLRSGTYTRTCPAARVTQRSSRASPTR	3.334	0.16	2.069	4.926
